US20230183336A1 (MODMAB THERAPEUTICS, published 2023)
Where a chain is given by its changes, count along the chain named.

T1: recombinant mouse LRP5-His chimera (mouse, UniProt Q91VN0 31-1383)
T1 construct: extracellular domain; also called ECD of mouse LRP5; not shown: His tag
T1 sequence (looked up): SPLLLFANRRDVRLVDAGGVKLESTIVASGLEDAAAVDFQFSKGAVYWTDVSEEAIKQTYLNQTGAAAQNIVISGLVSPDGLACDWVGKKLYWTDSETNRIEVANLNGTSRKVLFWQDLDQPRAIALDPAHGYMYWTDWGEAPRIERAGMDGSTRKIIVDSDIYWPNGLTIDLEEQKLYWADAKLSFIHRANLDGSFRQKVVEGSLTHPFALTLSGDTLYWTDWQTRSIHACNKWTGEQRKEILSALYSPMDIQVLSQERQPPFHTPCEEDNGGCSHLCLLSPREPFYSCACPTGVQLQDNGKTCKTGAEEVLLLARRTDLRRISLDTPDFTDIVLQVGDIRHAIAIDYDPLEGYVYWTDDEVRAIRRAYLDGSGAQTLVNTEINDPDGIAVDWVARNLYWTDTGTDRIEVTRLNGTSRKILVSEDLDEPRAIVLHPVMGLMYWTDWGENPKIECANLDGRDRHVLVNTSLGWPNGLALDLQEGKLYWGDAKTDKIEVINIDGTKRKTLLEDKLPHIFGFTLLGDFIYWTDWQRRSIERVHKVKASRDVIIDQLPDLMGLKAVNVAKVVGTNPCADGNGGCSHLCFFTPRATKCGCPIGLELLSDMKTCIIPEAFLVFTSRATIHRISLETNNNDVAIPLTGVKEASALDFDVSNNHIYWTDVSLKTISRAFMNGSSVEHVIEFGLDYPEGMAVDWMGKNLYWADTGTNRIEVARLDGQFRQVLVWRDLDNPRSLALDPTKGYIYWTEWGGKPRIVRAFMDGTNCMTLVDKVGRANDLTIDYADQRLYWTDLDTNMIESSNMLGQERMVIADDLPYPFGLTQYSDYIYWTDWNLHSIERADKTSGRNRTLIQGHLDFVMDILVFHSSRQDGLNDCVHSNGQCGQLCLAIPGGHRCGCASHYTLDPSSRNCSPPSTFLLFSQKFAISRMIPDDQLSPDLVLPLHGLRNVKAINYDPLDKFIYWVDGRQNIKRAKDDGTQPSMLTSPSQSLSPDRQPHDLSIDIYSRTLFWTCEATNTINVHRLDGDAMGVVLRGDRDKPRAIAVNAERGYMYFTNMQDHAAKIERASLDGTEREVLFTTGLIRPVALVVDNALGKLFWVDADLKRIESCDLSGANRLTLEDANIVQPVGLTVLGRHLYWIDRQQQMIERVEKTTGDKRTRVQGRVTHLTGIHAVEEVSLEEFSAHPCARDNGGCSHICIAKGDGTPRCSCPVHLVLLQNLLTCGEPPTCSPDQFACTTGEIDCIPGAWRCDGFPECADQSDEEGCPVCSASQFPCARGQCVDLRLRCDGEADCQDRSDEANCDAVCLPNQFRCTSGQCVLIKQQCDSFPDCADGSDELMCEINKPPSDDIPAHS

T2: recombinant human LRP6-Fc chimera (human, UniProt O75581 20-1370)
T2 construct: extracellular domain; also called ECD of human LRP6; not shown: Fc part of the chimera
T2 sequence (looked up): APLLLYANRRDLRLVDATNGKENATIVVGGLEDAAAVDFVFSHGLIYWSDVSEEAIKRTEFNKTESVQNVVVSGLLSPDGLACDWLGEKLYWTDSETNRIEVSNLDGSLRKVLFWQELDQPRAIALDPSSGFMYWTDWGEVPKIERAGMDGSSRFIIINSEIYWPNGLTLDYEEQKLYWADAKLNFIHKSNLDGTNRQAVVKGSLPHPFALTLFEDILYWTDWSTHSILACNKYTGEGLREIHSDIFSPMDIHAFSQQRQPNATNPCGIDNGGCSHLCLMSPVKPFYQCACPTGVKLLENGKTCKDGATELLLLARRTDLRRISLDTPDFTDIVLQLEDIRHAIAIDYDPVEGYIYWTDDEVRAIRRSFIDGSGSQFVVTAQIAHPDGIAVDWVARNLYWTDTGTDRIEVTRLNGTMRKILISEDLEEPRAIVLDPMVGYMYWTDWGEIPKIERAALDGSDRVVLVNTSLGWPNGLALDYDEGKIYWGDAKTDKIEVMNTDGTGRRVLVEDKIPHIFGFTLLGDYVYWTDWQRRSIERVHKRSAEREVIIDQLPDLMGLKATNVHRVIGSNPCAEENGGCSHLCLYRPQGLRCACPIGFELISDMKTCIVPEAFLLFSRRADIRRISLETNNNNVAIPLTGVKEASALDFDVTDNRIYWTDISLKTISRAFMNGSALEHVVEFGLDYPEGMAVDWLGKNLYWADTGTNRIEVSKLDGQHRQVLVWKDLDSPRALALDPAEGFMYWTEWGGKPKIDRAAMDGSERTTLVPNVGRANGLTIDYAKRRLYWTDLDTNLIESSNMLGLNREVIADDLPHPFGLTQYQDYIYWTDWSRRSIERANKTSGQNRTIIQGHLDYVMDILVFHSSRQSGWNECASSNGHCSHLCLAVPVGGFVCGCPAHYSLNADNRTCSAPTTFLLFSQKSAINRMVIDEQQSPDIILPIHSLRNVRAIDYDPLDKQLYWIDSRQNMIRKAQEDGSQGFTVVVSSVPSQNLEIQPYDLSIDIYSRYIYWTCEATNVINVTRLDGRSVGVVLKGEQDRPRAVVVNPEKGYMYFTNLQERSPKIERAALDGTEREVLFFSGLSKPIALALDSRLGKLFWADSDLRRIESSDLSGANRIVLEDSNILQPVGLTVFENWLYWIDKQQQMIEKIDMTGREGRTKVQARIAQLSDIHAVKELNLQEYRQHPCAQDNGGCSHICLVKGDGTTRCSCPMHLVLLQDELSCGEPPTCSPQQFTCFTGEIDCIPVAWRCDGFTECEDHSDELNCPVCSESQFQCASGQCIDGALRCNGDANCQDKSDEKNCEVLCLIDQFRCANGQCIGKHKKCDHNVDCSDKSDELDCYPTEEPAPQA

B1: LRP5-H3 (antibody, V domains shown)
VH: EVQLVESGGGLVQPGGSLRLSCAASGFNLYYYYIHWVRQAPGKGLEWVASISPYYGYTSYADSVKGRFTISADTSKNTAYLQMNSLRAEDTAVYYCARSGYGWYAMDYWGQGTLVTVSS
VL: DIQMTQSPSSLSASVGDRVTITCRASQSVSSAVAWYQQKPGKAPKLLIYSASSLYSGVPSRFSGSRSGTDFTLTISSLQPEDFATYYCQQYWFLITFGQGTKVEIKR
notes: Fab-phage in the screen
B2: LRP5-A7 (antibody, V domains shown)
VH: EVQLVESGGGLVQPGGSLRLSCAASGFNLSYSSMHWVRQAPGKGLEWVASIYPYYGYTYYADSVKGRFTISADTSKNTAYLQMNSLRAEDTAVYYCARHGAMDYWGQGTLVTVSS
VL: DIQMTQSPSSLSASVGDRVTITCRASQSVSSAVAWYQQKPGKAPKLLIYSASSLYSGVPSRFSGSRSGTDFTLTISSLQPEDFATYYCQQAWGWGLFTFGQGTKVEIKR
notes: Fab-phage in the screen; also called LRP5-47
B3: LRP5-E5 (antibody, V domains shown)
VH: EVQLVESGGGLVQPGGSLRLSCAASGFNIYSYSIHWVRQAPGKGLEWVASIYPYSSYTSYADSVKGRFTISADTSKNTAYLQMNSLRAEDTAVYYCARYAVYFPGYYWGMDYWGQGTLVTVSS
VL: B2 VL with A91Y, W92H, G93Y, W94Y, G95Y
notes: Fab-phage in the screen
B4: LRP5-C12 (antibody, V domains shown)
VH: EVQLVESGGGLVQPGGSLRLSCAASGFNFSSSSIHWVRQAPGKGLEWVASIYSSYGSTSYADSVKGRFTISADTSKNTAYLQMNSLRAEDTAVYYCARTVRGSKKPYFSGWAMDYWGQGTLVTVSS
VL: B2 VL with A91F, W92S, G93H, W94V, G95S, F97I
notes: Fab-phage in the screen
B5: LRP5-D9 (antibody, V domains shown)
VH: EVQLVESGGGLVQPGGSLRLSCAASGFNISYSYIHWVRQAPGKGLEWVASIYSSYGYTYYADSVKGRFTISADTSKNTAYLQMNSLRAEDTAVYYCARHYSYFFYAMDYWGQGTLVTVSS
VL: DIQMTQSPSSLSASVGDRVTITCRASQSVSSAVAWYQQKPGKAPKLLIYSASSLYSGVPSRFSGSRSGTDFTLTISSLQPEDFATYYCQQASYSPITFGQGTKVEIKR
notes: Fab-phage in the screen
B6: LRP5-H9 (antibody, V domains shown)
VH: EVQLVESGGGLVQPGGSLRLSCAASGFNIYSYYIHWVRQAPGKGLEWVASIYSYYGYTYYADSVKGRFTISADTSKNTAYLQMNSLRAEDTAVYYCARSYPAMDYWGQGTLVTVSS
VL: B5 VL with A91S
notes: Fab-phage in the screen
B7: LRP5-A9 (antibody, V domains shown)
VH: EVQLVESGGGLVQPGGSLRLSCAASGFNISSYSIHWVRQAPGKGLEWVASSSYYGYTYYADSVKGRFTISADTSKNTAYLQMNSLRAEDTAVYYCARTVRGSKKPYFSGWAMDYWGQGTLVTVSS
VL: DIQMTQSPSSLSASVGDRVTITCRASQSVSSAVAWYQQKPGKAPKLLIYSASSLYSGVPSRFSGSRSGTDFTLTISSLQPEDFATYYCQQVHYSPYSLITFGQGTKVEIKR
notes: Fab-phage in the screen
B8: LRP5-G11 (antibody, V domains shown)
VH: EVQLVESGGGLVQPGGSLRLSCAASGFNISYSYIHWVRQAPGKGLEWVASIYPSYGYTYYADSVKGRFTISADTSKNTAYLQMNSLRAEDTAVYYCARAAPYYGYYYSYAMDYWGQGTLVTVSS
VL: B1 VL with Y91G, W92V, F93S
notes: Fab-phage in the screen
B9: LRP5-G9 (antibody, V domains shown)
VH: EVQLVESGGGLVQPGGSLRLSCAASGFNISYSYIHWVRQAPGKGLEWVASIYSSYGYTYYADSVKGRFTISADTSKNTAYLQMNSLRAEDTAVYYCARWGAYHSSGYGMDYWGQGTLVTVSS
VL: B5 VL with A91S, Y93S
notes: Fab-phage in the screen

These binders were tested against T1, recombinant mouse LRP5-His chimera (assay: single-point ELISA, coated antigen, purified Fab or IgG1, anti-kappa-HRP).
Procedure: FIGS. 1A and 1B show sixteen (16) anti-LRP antibodies. (A) The amino acid sequences of the complementarity determining regions (CDR) of the heavy (H) and the light (L) chains are presented. The antibodies were grouped into unique epitopes as determined by competitive ELISAs. (B) Single-point ELISAs were performed on 96-well Maxisorb immune plates coated with ECD's of mouse LRP5, mouse LRP6 and human LRP6 chimeras. The plates were incubated with the purified Fab or IgG1 at the concentrations indicated followed by incubation with horseradish peroxidase (HRP)-conjugated anti-kappa antibody. The wells were washed eight times followed by incubation with 3,3′,5,5′-tetramethylbenzidine/H₂O₂ peroxidase (TMB) substrate for 5-10 min. The reaction was stopped by adding 1M H₃PO₄ and the absorbance was measured spectrometrically at 450 nm in a microtiter plate reader. FIG. 1A discloses “SSVA” as SEQ ID NO: 34, and “SASSLYS” as SEQ ID NO: 35, as well as SEQ ID NOS 36-49, 51, 44, 2-4, 4, 5-7, 5, 4, 5, 8-10, 4, 52, 55, 11-16, 15, 15, 13, 17-20, 13, 53, 56, 21-23, 22, 24-33, 54, 57, respectively, in order of columns.
(§1) The full length IgG1s and the antibody fragments (Fabs) were purified and a single-point ELISA was done to determine the specificity of the antibodies. […] A multipoint competitive ELISA was used to determine the relative affinities of the antibodies to the recombinant antigen.
B1: binds.
B2: binds.
B3: binds.
B4: binds.
B5: binds.
B6: binds.
B7: binds.

The binders below were run against T2, recombinant human LRP6-Fc chimera (assay: multipoint competitive ELISA, IgG1; varied competitor printed as recombinant human LRP6-Fc chimera, while paragraph 283 says 'the recombinant antigen').
Description: as §1
Table 3 reports the IC50 of LRP5 antibodies as determined by competitive ELISA. The log of the recombinant human LRP6-Fc chimera concentration (x-axis) was plotted against the OD450 reading of the antibody (y-axis). The IC50 was determined by non-linear regression analysis.
B8 was tested, and the IC50 was 25.1 nM.
In the case of B2, the IC50 is reported as 4.68 nM.
In the case of B5, the IC50 is reported as 25.1 nM.
Binder B9 has an IC50 of 26.4 nM.
Work on B6 yielded an IC50 of 37.5 nM.
